Results reported in patent US20240262919A1 (SHANGHAITECH UNIVERSITY, published 2024).

T1: human IL-18Rβ ECD Fc fusion (118-AP-100, R&D Systems) (human, UniProt O95256 20-356)
T1 construct: Bought protein; also called hIL-18Rβ; recombinant human IL-18Rb; not shown: Fc tag of the bought fusion protein, not described
T1 sequence: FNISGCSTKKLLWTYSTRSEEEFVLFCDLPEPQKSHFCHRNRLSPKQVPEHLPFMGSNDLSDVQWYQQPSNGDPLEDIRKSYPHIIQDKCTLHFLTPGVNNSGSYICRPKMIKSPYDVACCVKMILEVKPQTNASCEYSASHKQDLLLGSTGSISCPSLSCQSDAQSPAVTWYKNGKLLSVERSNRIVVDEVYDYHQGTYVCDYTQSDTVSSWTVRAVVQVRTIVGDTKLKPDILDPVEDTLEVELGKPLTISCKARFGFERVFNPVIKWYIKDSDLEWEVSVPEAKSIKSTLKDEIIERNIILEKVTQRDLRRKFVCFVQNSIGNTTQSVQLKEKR


Columns and labels:
[1] = target: T1, human IL-18Rβ ECD Fc fusion …; assay: SPR (Table 5 title), Fab on human receptor
[2] = target: T1, human IL-18Rβ ECD Fc fusion …; assay: multipoint direct binding ELISA (drawn table, column EC50 (nM))
[3] = target: T1, human IL-18Rβ ECD Fc fusion …; assay: competitive binding ELISA with soluble receptor (drawn table, column IC50 (nM))
[4] = target: T1, human IL-18Rβ ECD Fc fusion …; assay: biolayer interferometry (BLI) after legend paragraph 36; drawn table, head KD (nM), Human receptor
[5] = target: T1, human IL-18Rβ ECD Fc fusion …; assay: biolayer interferometry (BLI) after legend paragraph 36; drawn table, head kd (10^-4 s^-1), Human receptor
[6] = target: T1, human IL-18Rβ ECD Fc fusion …; assay: biolayer interferometry (BLI) after legend paragraph 36; drawn table, head ka (10^4 M^-1 s^-1), Human receptor
[7] = target: T1, human IL-18Rβ ECD Fc fusion …; assay: ELISA on recombinant human IL-18Rβ, normalised OD 450 nm, Fab with PBS or with saturating IgG 3131 [bottom plot]
Excerpt: (§1) The results are presented in FIG. 9, in which the binding signals for purified. […] Error bars represent standard deviation of replicate measurements.

[8] = target: T1, human IL-18Rβ ECD Fc fusion …; assay: ELISA on recombinant human IL-18Rβ, normalised OD 450 nm, Fab with PBS or with saturating IgG 3131 [middle plot]
Excerpt: as §1

Row | binding result [7] | binding result [8] | Binder | also measured
1 | binds |  | 3131 AM2-37 (Fab, V domains shown, Fab) VH: EVQLVESGGGLVQPGGSLRLSCAASGFNLYYSSMHWVRQAPGKGLEWVASIYSSSGSTSYADSVKGRFTISADTSKNTAYLQMNSLRAEDTAVYYCARSSFSHGYGWYGLDYWGQGTLVTVSS VL: DIQMTQSPSSLSASVGDRVTITCRASQSVSSAVAWYQQKPGKAPKLLIYSASSLYSGVPSRFSGSRSGTDFTLTISSLQPEDFATYYCQQYGYHSAGLITFGQGTKVEIK | 
2 | binds |  | 3131 AM2-S-G (Fab, V domains shown, Fab) VH: EVQLVESGGGLVQPGGSLRLSCAASGFNLYYSSMHWVRQAPGKGLEWVASIYSSYGYTYYADSVKGRFTISADTSKNTAYLQMNSLRAEDTAVYYCARSSFSHGYGWYGLDYWGQGTLVTVSS VL: DIQMTQSPSSLSASVGDRVTITCRASQSVSSAVAWYQQKPGKAPKLLIYGASSLYSGVPSRFSGSRSGTDFTLTISSLQPEDFATYYCQQYGYHYAGLITFGQGTKVEIK | 
3 | binds |  | 3131 AM2-S-H (Fab, V domains shown, Fab) VH: EVQLVESGGGLVQPGGSLRLSCAASGFNLYYSSMHWVRQAPGKGLEWVASIYSSYGYTYYADSVKGRFTISADTSKNTAYLQMNSLRAEDTAVYYCARSSFSHGYGWYGLDYWGQGTLVTVSS VL: DIQMTQSPSSLSASVGDRVTITCRASQSVSSAVAWYQQKPGKAPKLLIYHASSLYSGVPSRFSGSRSGTDFTLTISSLQPEDFATYYCQQYGYHYAGLITFGQGTKVEIK | 
4 | binds |  | 3131 AM2-S-T (Fab, V domains shown, Fab) VH: EVQLVESGGGLVQPGGSLRLSCAASGFNLYYSSMHWVRQAPGKGLEWVASIYSSYGYTYYADSVKGRFTISADTSKNTAYLQMNSLRAEDTAVYYCARSSFSHGYGWYGLDYWGQGTLVTVSS VL: DIQMTQSPSSLSASVGDRVTITCRASQSVSSAVAWYQQKPGKAPKLLIYTASSLYSGVPSRFSGSRSGTDFTLTISSLQPEDFATYYCQQYGYHYAGLITFGQGTKVEIK | 
5 | binds |  | 3131 AM2-S-Y (Fab, V domains shown, Fab) VH: EVQLVESGGGLVQPGGSLRLSCAASGFNLYYSSMHWVRQAPGKGLEWVASIYSSYGYTYYADSVKGRFTISADTSKNTAYLQMNSLRAEDTAVYYCARSSFSHGYGWYGLDYWGQGTLVTVSS VL: DIQMTQSPSSLSASVGDRVTITCRASQSVSSAVAWYQQKPGKAPKLLIYYASSLYSGVPSRFSGSRSGTDFTLTISSLQPEDFATYYCQQYGYHYAGLITFGQGTKVEIK | 

More lines, now with the values behind:

Row | Binder | binding result [7] | binding result [8] | also measured
6 | Fab A3 (Fab, also called FA3) heavy: EVQLVESGGGLVQPGGSLRLSCAASGFNLYSSYIHWVRQAPGKGLEWVASIYSSSGYTYYADSVKGRFTISADTSKNTAYLQMNSLRAEDTAVYYCARSVHSYYSSAAYYAMDYWGQGTLVTVSSASTKGPSVFPLAPSSKSTSGGTAALGCLVKDYFPEPVTVSWNSGALTSGVHTFPAVLQSSGLYSLSSVVTVPSSSLGTQTYICNVNHKPSNTKVDKKVEPKSCDKTHT light: DIQMTQSPSSLSASVGDRVTITCRASQSVSSAVAWYQQKPGKAPKLLIYSASSLYSGVPSRFSGSRSGTDFTLTISSLQPEDFATYYCQQSYFLITFGQGTKVEIKRTVAAPSVFIFPPSDSQLKSGTASVVCLLNNFYPREAKVQWKVDNALQSGNSQESVTEQDSKDSTYSLSSTLTLSKADYEKHKVYACEVTHQGLSSPVTKSFNRGECGGSDYKDDDDK |  |  | Kd [1]: 78 nM; koff [1]: 0.0016 s⁻¹; kon [1]: 20000 M⁻¹ s⁻¹; EC50 [2]: 86 nM; IC50 [3]: 105 nM; Kd [4]: 30 nM; koff [5]: 0.0015 s⁻¹; kon [6]: 51000 M⁻¹ s⁻¹
7 | 3131 AM2-36 (Fab, V domains shown, Fab) VH: EVQLVESGGGLVQPGGSLRLSCAASGFNLYYSSMHWVRQAPGKGLEWVASIYSSSGSTSYADSVKGRFTISADTSKNTAYLQMNSLRAEDTAVYYCARSSFSHGYGWYGLDYWGQGTLVTVSS VL: DIQMTQSPSSLSASVGDRVTITCRASQSVSSAVAWYQQKPGKAPKLLIYSASSLYSGVPSRFSGSRSGTDFTLTISSLQPEDFATYYCQQYGYHYAGLITFGQGTKVEIK | binds |  | 
8 | 3131 AM2-25 (Fab, V domains shown, Fab) VH: EVQLVESGGGLVQPGGSLRLSCAASGFNLYYSSMHWVRQAPGKGLEWVASIYSSYGYTYYADSVKGRFTISADTSKNTAYLQMNSLRAEDTAVYYCARSSFSHGYGWYGLDYWGQGTLVTVSS VL: DIQMTQSPSSLSASVGDRVTITCRASQSVSSAVAWYQQKPGKAPKLLIYSASSRDSGVPSRFSGSRSGTDFTLTISSLQPEDFATYYCQQYGYHYAGLITFGQGTKVEIK |  | binds | 
9 | 3131 AM2-26 (Fab, V domains shown, Fab) VH: EVQLVESGGGLVQPGGSLRLSCAASGFNLYYSSMHWVRQAPGKGLEWVASIYSSYGYTYYADSVKGRFTISADTSKNTAYLQMNSLRAEDTAVYYCARSSFSHGYGWYGLDYWGQGTLVTVSS VL: DIQMTQSPSSLSASVGDRVTITCRASQSVSSAVAWYQQKPGKAPKLLIYSESSLSSGVPSRFSGSRSGTDFTLTISSLQPEDFATYYCQQYGYHYAGLITFGQGTKVEIK |  | binds | 
10 | 3131 AM2-28 (Fab, V domains shown, Fab) VH: EVQLVESGGGLVQPGGSLRLSCAASGFNLYYSSMHWVRQAPGKGLEWVASIYSSYGYTYYADSVKGRFTISADTSKNTAYLQMNSLRAEDTAVYYCARSSFSHGYGWYGLDYWGQGTLVTVSS VL: DIQMTQSPSSLSASVGDRVTITCRASQSVSSAVAWYQQKPGKAPKLLIYSRSSDSSGVPSRFSGSRSGTDFTLTISSLQPEDFATYYCQQYGYHYAGLITFGQGTKVEIK |  | binds | 
11 | 3131 AM2-30 (Fab, V domains shown, Fab) VH: EVQLVESGGGLVQPGGSLRLSCAASGFNLYYSSMHWVRQAPGKGLEWVASIYSSYGYTYYADSVKGRFTISADTSKNTAYLQMNSLRAEDTAVYYCARSSFSHGYGWYGLDYWGQGTLVTVSS VL: DIQMTQSPSSLSASVGDRVTITCRASQSVSSAVAWYQQKPGKAPKLLIYSASSERSGVPSRFSGSRSGTDFTLTISSLQPEDFATYYCQQYGYHYAGLITFGQGTKVEIK |  | binds | 
12 | 3131 AM2-31 (Fab, V domains shown, Fab) VH: EVQLVESGGGLVQPGGSLRLSCAASGFNLYYSSMHWVRQAPGKGLEWVASIYSSYGYTYYADSVKGRFTISADTSKNTAYLQMNSLRAEDTAVYYCARSSFSHGYGWYGLDYWGQGTLVTVSS VL: DIQMTQSPSSLSASVGDRVTITCRASQSVSSAVAWYQQKPGKAPKLLIYSESSLYSGVPSRFSGSRSGTDFTLTISSLQPEDFATYYCQQYGYHYAGLITFGQGTKVEIK |  | binds | 
13 | 3131 AM2-32 (Fab, V domains shown, Fab) VH: EVQLVESGGGLVQPGGSLRLSCAASGFNLYYSSMHWVRQAPGKGLEWVASIYSSYGYTYYADSVKGRFTISADTSKNTAYLQMNSLRAEDTAVYYCARSSFSHGYGWYGLDYWGQGTLVTVSS VL: DIQMTQSPSSLSASVGDRVTITCRASQSVSSAVAWYQQKPGKAPKLLIYSSSSVYSGVPSRFSGSRSGTDFTLTISSLQPEDFATYYCQQYGYHYAGLITFGQGTKVEIK | binds |  | 
14 | 3131 AM2-33 (Fab, V domains shown, Fab) VH: EVQLVESGGGLVQPGGSLRLSCAASGFNLYYSSMHWVRQAPGKGLEWVASIYSSYGHTSYADSVKGRFTISADTSKNTAYLQMNSLRAEDTAVYYCARSSFSHGYGWYGLDYWGQGTLVTVSS VL: DIQMTQSPSSLSASVGDRVTITCRASQSVSSAVAWYQQKPGKAPKLLIYSASSLYSGVPSRFSGSRSGTDFTLTISSLQPEDFATYYCQQYGYHYAGLITFGQGTKVEIK | binds |  | 
15 | 3131 AM2-35 (Fab, V domains shown, Fab) VH: EVQLVESGGGLVQPGGSLRLSCAASGFNLYYSSMHWVRQAPGKGLEWVASIYSSYGYTYYADSVKGRFTISADTSKNTAYLQMNSLRAEDTAVYYCARSSFSHGYGWYGLDYWGQGTLVTVSS VL: DIQMTQSPSSLSASVGDRVTITCRASQSVSSAVAWYQQKPGKAPKLLIYSASSLYSGVPSRFSGSRSGTDFTLTISSLQPEDFATYYCQQYGYHSAGLITFGQGTKVEIK | binds |  | 
